Source: patent US20260167699A1 (Chugai, published 2026)

T1: FcγRIIa(H) (human, UniProt P12318 34-217)
T1 construct: extracellular domain; allotype H131; also called 2aH
T1 sequence: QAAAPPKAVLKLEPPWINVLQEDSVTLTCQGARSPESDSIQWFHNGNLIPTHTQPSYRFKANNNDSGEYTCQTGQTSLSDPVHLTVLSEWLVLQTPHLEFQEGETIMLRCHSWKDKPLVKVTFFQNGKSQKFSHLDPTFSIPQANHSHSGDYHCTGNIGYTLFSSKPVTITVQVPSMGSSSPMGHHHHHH

T2: FcγRIIa(R) (human, UniProt P12318 34-217)
T2 construct: extracellular domain; allotype R131; also called 2aR
T2 sequence: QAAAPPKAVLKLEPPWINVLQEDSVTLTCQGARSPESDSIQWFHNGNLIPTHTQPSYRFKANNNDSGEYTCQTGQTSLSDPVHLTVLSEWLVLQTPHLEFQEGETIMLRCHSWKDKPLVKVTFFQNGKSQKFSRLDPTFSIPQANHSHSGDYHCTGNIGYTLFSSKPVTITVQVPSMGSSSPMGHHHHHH

T3: FcγRIIb (human, UniProt P31994 43-217)
T3 construct: extracellular domain; also called 2b
T3 sequence: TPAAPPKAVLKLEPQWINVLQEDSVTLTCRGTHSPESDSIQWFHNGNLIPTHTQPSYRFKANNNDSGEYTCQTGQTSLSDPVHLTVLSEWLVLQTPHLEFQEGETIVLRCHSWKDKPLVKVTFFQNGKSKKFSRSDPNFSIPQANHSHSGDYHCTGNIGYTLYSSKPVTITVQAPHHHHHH

B1: GpH7-A5/GpH7-B3 variant S337_08L/GpL16-k0 (antibody, human IgG1, kappa)
heavy 1: not shown
heavy 2: not shown
light: DIVMTQSPLSLPVTPGEPASISCQASESLVHSNRNTYLHWYLQKPGQSPQLLIYKVSNRFSGVPDRFSGSGSGTDFTLKISRVEAEDVGVYYCSQNTHVPPTFGQGTKVEIERTVAAPSVFIFPPSDEQLKSGTASVVCLLNNFYPREAKVQWKVDNALQSGNSQESVTEQDSKDSTYSLSSTLTLSKADYEKHKVYACEVTHQGLSSPVTKSFNRGEC
notes: Heterodimerized anti-glypican 3 IgG1 antibody with the mutation in only one H chain (GpH7-B3 side); also called He Ab
B2: GpH7-A5/GpH7-B3 variant S337_07I/GpL16-k0 (antibody, human IgG1, kappa)
heavy 1: not shown
heavy 2: not shown
light: DIVMTQSPLSLPVTPGEPASISCQASESLVHSNRNTYLHWYLQKPGQSPQLLIYKVSNRFSGVPDRFSGSGSGTDFTLKISRVEAEDVGVYYCSQNTHVPPTFGQGTKVEIERTVAAPSVFIFPPSDEQLKSGTASVVCLLNNFYPREAKVQWKVDNALQSGNSQESVTEQDSKDSTYSLSSTLTLSKADYEKHKVYACEVTHQGLSSPVTKSFNRGEC
notes: heterodimerized anti-glypican 3 IgG1; mutation in one H chain only; also called He Ab
B3: GpH7-A5/GpH7-B3 variant S337_14T/GpL16-k0 (antibody, human IgG1, kappa)
heavy 1: not shown
heavy 2: not shown
light: DIVMTQSPLSLPVTPGEPASISCQASESLVHSNRNTYLHWYLQKPGQSPQLLIYKVSNRFSGVPDRFSGSGSGTDFTLKISRVEAEDVGVYYCSQNTHVPPTFGQGTKVEIERTVAAPSVFIFPPSDEQLKSGTASVVCLLNNFYPREAKVQWKVDNALQSGNSQESVTEQDSKDSTYSLSSTLTLSKADYEKHKVYACEVTHQGLSSPVTKSFNRGEC
notes: as for B1
B4: GpH7-A5/GpH7-B3 variant S337_08L/GpL16-k0 (antibody, human IgG1, kappa)
heavy 1: not shown
heavy 2: not shown
light: DIVMTQSPLSLPVTPGEPASISCQASESLVHSNRNTYLHWYLQKPGQSPQLLIYKVSNRFSGVPDRFSGSGSGTDFTLKISRVEAEDVGVYYCSQNTHVPPTFGQGTKVEIERTVAAPSVFIFPPSDEQLKSGTASVVCLLNNFYPREAKVQWKVDNALQSGNSQESVTEQDSKDSTYSLSSTLTLSKADYEKHKVYACEVTHQGLSSPVTKSFNRGEC
notes: as for B2
B5: GpH7-A5/GpH7-B3 variant S337_16H/GpL16-k0 (antibody, human IgG1, kappa)
heavy 1: not shown
heavy 2: not shown
light: DIVMTQSPLSLPVTPGEPASISCQASESLVHSNRNTYLHWYLQKPGQSPQLLIYKVSNRFSGVPDRFSGSGSGTDFTLKISRVEAEDVGVYYCSQNTHVPPTFGQGTKVEIERTVAAPSVFIFPPSDEQLKSGTASVVCLLNNFYPREAKVQWKVDNALQSGNSQESVTEQDSKDSTYSLSSTLTLSKADYEKHKVYACEVTHQGLSSPVTKSFNRGEC
notes: as for B1
B6: GpH7-A5/GpH7-B3 variant S337_19Q/GpL16-k0 (antibody, human IgG1, kappa)
heavy 1: not shown
heavy 2: not shown
light: DIVMTQSPLSLPVTPGEPASISCQASESLVHSNRNTYLHWYLQKPGQSPQLLIYKVSNRFSGVPDRFSGSGSGTDFTLKISRVEAEDVGVYYCSQNTHVPPTFGQGTKVEIERTVAAPSVFIFPPSDEQLKSGTASVVCLLNNFYPREAKVQWKVDNALQSGNSQESVTEQDSKDSTYSLSSTLTLSKADYEKHKVYACEVTHQGLSSPVTKSFNRGEC
notes: as for B1
B7: GpH7-A5/GpH7-B3 variant S337_15Y/GpL16-k0 (antibody, human IgG1, kappa)
heavy 1: not shown
heavy 2: not shown
light: DIVMTQSPLSLPVTPGEPASISCQASESLVHSNRNTYLHWYLQKPGQSPQLLIYKVSNRFSGVPDRFSGSGSGTDFTLKISRVEAEDVGVYYCSQNTHVPPTFGQGTKVEIERTVAAPSVFIFPPSDEQLKSGTASVVCLLNNFYPREAKVQWKVDNALQSGNSQESVTEQDSKDSTYSLSSTLTLSKADYEKHKVYACEVTHQGLSSPVTKSFNRGEC
notes: as for B2
B8: GpH7-A5/GpH7-B3 variant S337_11K/GpL16-k0 (antibody, human IgG1, kappa)
heavy 1: not shown
heavy 2: not shown
light: DIVMTQSPLSLPVTPGEPASISCQASESLVHSNRNTYLHWYLQKPGQSPQLLIYKVSNRFSGVPDRFSGSGSGTDFTLKISRVEAEDVGVYYCSQNTHVPPTFGQGTKVEIERTVAAPSVFIFPPSDEQLKSGTASVVCLLNNFYPREAKVQWKVDNALQSGNSQESVTEQDSKDSTYSLSSTLTLSKADYEKHKVYACEVTHQGLSSPVTKSFNRGEC
notes: as for B2
B9: GpH7-A5/GpH7-B3 variant S337_11K/GpL16-k0 (antibody, human IgG1, kappa)
heavy 1: not shown
heavy 2: not shown
light: DIVMTQSPLSLPVTPGEPASISCQASESLVHSNRNTYLHWYLQKPGQSPQLLIYKVSNRFSGVPDRFSGSGSGTDFTLKISRVEAEDVGVYYCSQNTHVPPTFGQGTKVEIERTVAAPSVFIFPPSDEQLKSGTASVVCLLNNFYPREAKVQWKVDNALQSGNSQESVTEQDSKDSTYSLSSTLTLSKADYEKHKVYACEVTHQGLSSPVTKSFNRGEC
notes: as for B1
B10: GpH7-A5/GpH7-B3 variant S337_15Y/GpL16-k0 (antibody, human IgG1, kappa)
heavy 1: not shown
heavy 2: not shown
light: DIVMTQSPLSLPVTPGEPASISCQASESLVHSNRNTYLHWYLQKPGQSPQLLIYKVSNRFSGVPDRFSGSGSGTDFTLKISRVEAEDVGVYYCSQNTHVPPTFGQGTKVEIERTVAAPSVFIFPPSDEQLKSGTASVVCLLNNFYPREAKVQWKVDNALQSGNSQESVTEQDSKDSTYSLSSTLTLSKADYEKHKVYACEVTHQGLSSPVTKSFNRGEC
notes: as for B1
B11: GpH7-A5/GpH7-B3 variant S337_20W/GpL16-k0 (antibody, human IgG1, kappa)
heavy 1: not shown
heavy 2: not shown
light: DIVMTQSPLSLPVTPGEPASISCQASESLVHSNRNTYLHWYLQKPGQSPQLLIYKVSNRFSGVPDRFSGSGSGTDFTLKISRVEAEDVGVYYCSQNTHVPPTFGQGTKVEIERTVAAPSVFIFPPSDEQLKSGTASVVCLLNNFYPREAKVQWKVDNALQSGNSQESVTEQDSKDSTYSLSSTLTLSKADYEKHKVYACEVTHQGLSSPVTKSFNRGEC
notes: as for B1
B12: GpH7-A5/GpH7-B3 variant S337_07I/GpL16-k0 (antibody, human IgG1, kappa)
heavy 1: not shown
heavy 2: not shown
light: DIVMTQSPLSLPVTPGEPASISCQASESLVHSNRNTYLHWYLQKPGQSPQLLIYKVSNRFSGVPDRFSGSGSGTDFTLKISRVEAEDVGVYYCSQNTHVPPTFGQGTKVEIERTVAAPSVFIFPPSDEQLKSGTASVVCLLNNFYPREAKVQWKVDNALQSGNSQESVTEQDSKDSTYSLSSTLTLSKADYEKHKVYACEVTHQGLSSPVTKSFNRGEC
notes: as for B1
B13: GpH7-A5/GpH7-B3 variant S337_14T/GpL16-k0 (antibody, human IgG1, kappa)
heavy 1: not shown
heavy 2: not shown
light: DIVMTQSPLSLPVTPGEPASISCQASESLVHSNRNTYLHWYLQKPGQSPQLLIYKVSNRFSGVPDRFSGSGSGTDFTLKISRVEAEDVGVYYCSQNTHVPPTFGQGTKVEIERTVAAPSVFIFPPSDEQLKSGTASVVCLLNNFYPREAKVQWKVDNALQSGNSQESVTEQDSKDSTYSLSSTLTLSKADYEKHKVYACEVTHQGLSSPVTKSFNRGEC
notes: as for B2

Key:
[1] = target: T1, FcγRIIa(H); test: SPR (Biacore), antibody captured on chip, FcγR as analyte; relative to GpH7-A5/GpH7-B3/GpL16-k0 = 100
[2] = target: T2, FcγRIIa(R); test: as above
[3] = target: T4, FcγRIIIa (human, UniProt P08637 17-208); test: as above
T4 construct: extracellular domain; also called 3a
T4 sequence (P08637 other isoform, or with tags, fused parts or gaps): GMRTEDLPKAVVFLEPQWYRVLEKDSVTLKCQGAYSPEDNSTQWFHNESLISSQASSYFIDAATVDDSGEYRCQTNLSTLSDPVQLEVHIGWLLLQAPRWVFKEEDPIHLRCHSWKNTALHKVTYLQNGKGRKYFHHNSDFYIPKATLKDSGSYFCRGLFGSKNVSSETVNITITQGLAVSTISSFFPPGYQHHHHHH

[4] = target: T3, FcγRIIb; test: as above
[5] = target: T5, FcγRIa (human, UniProt P12314 16-292); test: as above
T5 construct: extracellular domain; also called 1a
T5 sequence (P12314 other isoform, or with tags, fused parts or gaps): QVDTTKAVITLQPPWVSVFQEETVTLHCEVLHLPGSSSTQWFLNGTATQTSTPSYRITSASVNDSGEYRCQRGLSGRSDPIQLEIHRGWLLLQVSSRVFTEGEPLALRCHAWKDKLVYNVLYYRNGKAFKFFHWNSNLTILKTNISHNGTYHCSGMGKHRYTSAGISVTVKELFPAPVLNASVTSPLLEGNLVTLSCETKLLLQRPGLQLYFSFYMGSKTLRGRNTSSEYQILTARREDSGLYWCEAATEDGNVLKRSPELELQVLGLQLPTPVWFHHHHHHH

[6] = target: T6, FcγRIIIa extracellular domain with C-terminal His tag (allotype not given) (human, UniProt P08637 17-208); test: SPR (Biacore), captured antibody, FcγRIIIa analyte; binding relative to GpH7-A5/GpH7-B3/GpL16-k0 = 100
T6 construct: extracellular domain; also called 3a
T6 sequence (P08637 other isoform, or with tags, fused parts or gaps): as the sequence (P08637 other isoform, or with tags, fused parts or gaps) above

Binder	He/Con 2aH (binding activity relative to GpH7-A5/GpH7-B3/GpL16-k0 x 100) [1]	He/Con 2aR (binding activity relative to GpH7-A5/GpH7-B3/GpL16-k0 x 100) [2]	He/Con 3a (binding activity relative to GpH7-A5/GpH7-B3/GpL16-k0 x 100) [3]	He/Con 2b (binding activity relative to GpH7-A5/GpH7-B3/GpL16-k0 x 100) [4]	He/Con 1a (binding activity relative to GpH7-A5/GpH7-B3/GpL16-k0 x 100) [5]	He/Con 3a [6] [%]
B1	106 % of control	109 % of control	90.2 % of control	109 % of control	102 % of control	–
B2	–	–	–	–	–	88.3
B3	110 % of control	112 % of control	94 % of control	114 % of control	102 % of control	–
B4	–	–	–	–	–	90.2
B5	108 % of control	111 % of control	100 % of control	114 % of control	101 % of control	–
B6	104 % of control	108 % of control	91.2 % of control	109 % of control	101 % of control	–
B7	–	–	–	–	–	94.9
B8	–	–	–	–	–	80.1
B9	102 % of control	105 % of control	80.1 % of control	103 % of control	101 % of control	–
B10	106 % of control	107 % of control	94.9 % of control	109 % of control	101 % of control	–
B11	108 % of control	112 % of control	93.8 % of control	119 % of control	102 % of control	–
B12	107 % of control	111 % of control	88.3 % of control	113 % of control	102 % of control	–
B13	–	–	–	–	–	94
